The results in this text go back to paper doi:10.1101/2021.02.16.431366, “Functional basis for calmodulation of the TRPV5 calcium channel” (bioRxiv, 2021).

The term IC50 denotes the midpoint of a concentration-inhibition curve. Read a high IC50 as a need for much substance. As usually defined, the stoichiometry N is a count of units in the complex or per binding partner.

The target in one series is T1, CaM agarose resin (UniProt P62157 1-149).
T1 construct: calmodulin coupled to agarose; Immobilised on agarose by the supplier; source: bought: Sigma Aldrich (CaM agarose resin)
Briefly: pull-down; competition: 0-100 µM TRPV5 peptide added to the CaM agarose pull-down of GFP-TRPV5 lysate; TRPV5 band semi-quantified and fitted (non-linear sigmoidal) against log peptide concentration; Ca2+ concentration not stated. Conditions: both partners purified.

Series [1] concerns the molecule itself. The experiment in a line: single molecule photobleaching counting (smPB, TIRF microscopy); living HEK293 cells with low expression; bleaching steps of confined spots at the cell surface counted and fitted to a binomial distribution (eGFP folding probability 72%); CaM-eGFP counted in spots positive for mCherry-TRPV5, in presence and absence of extracellular Ca2+.

Where no end group is shown, it is not given here.

B1: TRPV5 distal helix peptide (peptide)
peptide: {Biotin‑C6}-QSSNSHRGWEILRRNTLGHL
notes: TRPV5 distal C-terminal helix; the limits are counted from W702, the residue changed in the printed W702A peptide; also called distal peptide; distal TRPV5 peptide; source: synthetic peptide, bought: EMC microcollections GmbH
In turn, B1 showed an IC50 with CaM agarose resin of 5.2 µM.

B2: GFP-TRPV5 (natural protein, rabbit, UniProt Q9XSM3 1-730, looked up)
chain: MGACPPKAKGPWAQLQKLLISWPVGEQDWEQYRDRVNMLQQERIRDSPLLQAAKENDLRLLKILLLNQSCDFQQRGAVGETALHVAALYDNLEAATLLMEAAPELAKEPALCEPFVGQTALHIAVMNQNLNLVRALLARGASVSARATGAAFRRSPHNLIYYGEHPLSFAACVGSEEIVRLLIEHGADIRAQDSLGNTVLHILILQPNKTFACQMYNLLLSYDEHSDHLQSLELVPNHQGLTPFKLAGVEGNTVMFQHLMQKRKHVQWTCGPLTSTLYDLTEIDSWGEELSFLELVVSSKKREARQILEQTPVKELVSFKWKKYGRPYFCVLASLYILYMICFTTCCIYRPLKLRDDNRTDPRDITILQQKLLQEAYVTHQDNIRLVGELVTVTGAVIILLLEIPDIFRVGASRYFGQTILGGPFHVIIITYASLVLLTMVMRLTNMNGEVVPLSFALVLGWCSVMYFARGFQMLGPFTIMIQKMIFGDLMRFCWLMAVVILGFASAFHITFQTEDPNNLGEFSDYPTALFSTFELFLTIIDGPANYSVDLPFMYCITYAAFAIIATLLMLNLFIAMMGDTHWRVAQERDELWRAQVVATTVMLERKMPRFLWPRSGICGYEYGLGDRWFLRVENHHDQNPLRVLRYVEAFKCSDKEDGQEQLSEKRPSTVESGMLSRASVAFQTPSLSRTTSQSSNSHRGWEILRRNTLGHLNLGLDLGEGDGEEVYHF
notes: TRPV5, rabbit, cloned into a pcDNA5 vector with an N-terminal GFP tag; also called eGFP-TRPV5; source: HEK293, transfected, in lysate; in living cells for single molecule photobleaching; not shown: GFP, N-terminal, kept
Regarding B2, the “stoichiometry N” value in series [1] is 4.
